Measured values from patent US20250369024A1, “Acyloin Condensation Reactions, Enzymes, and Products Thereof” (Mojia Biotech Pte. Ltd., priority 2023, published 2025).

Columns and labels:
AC440 = test: Tolerance of 2HIB in AC440; format: cell-based, E. coli; settings: M9-LB; cell density at 600 nm
Procedure: To check the tolerance of 2HIB, AC440 was grown in 5 mL of M9-LB supplemented with different concentration of 2HIB in 50 mL falcon tube, the cell density was monitored at 600 nm. The impact on growth could be observed at 25 g/L of 2HIB, while the AC440 is still able to grow and maintain its metabolic activity at the concentration of 2HIB at 75 g/L (FIG. 21), considering the cells will not suffer such high concentration of 2HIB at early stage, indicating AC440 is a good host for 2HIB production.

2-hydroxyisobutyryl-CoA = test: In vitro purified enzyme isobutene glycol production from acetone and formate, ACR comparison; format: biochemical; settings: 1 μM ACR and 1 μM FucO; 50 mM formate and 200 mM acetone
Procedure: The enzymes acyl-CoA transferase CaAbfT, HACS ApbHACS, acyl-CoA reductase ACR (LmACR, BmACDH, PtACDH, RpPduP, StEutE), and NADH-dependent alcohol dehydrogenase FucO were overexpressed and purified as described above. In vitro purified enzyme reactions for condensation of acetone and formyl-CoA was comprised of 100 mM KPi pH 7.4, 10 mM MgCl2, 0.15 mM TPP, 4 mM NADH, 2 mM acetyl-CoA, 1 μM ApbHACL, 2 μM CaAbfT, 50 mM formate and 200 mM acetone. The mixture was incubated at 30° C. for 3 min, and then 1 μM ACR and 1 μM FucO was added, and then the reactions were incubated at 30° C. for another 5 min unless otherwise specified. 2 μL of 10 M NaOH was added to 45 μL mixture for 30 min, followed by 3 μL 10 N H2SO4, and then applied for HPLC analysis as described above.

formate = test: Screening of formate activation enzymes with acetone and formate using growing cultures (2HIB); format: cell-based, E. coli; settings: 100 mM acetone and 20 mM formate; growing cells
Excerpt: Since formate activation is a required step for formate utilization, we further evaluated enzymes catalyzing this reaction. Acyl-CoA synthetase (ACS) enzymes are one of the three explored routes for formate activation, which can directly generate formyl-CoA from formate with the consumption of 2 ATP equivalents (ATP is converted to AMP). […] Therefore, ACS variants were further evaluated using the new established growing cell platform with ApbHACS overexpression. In this platform, formyl-CoA generated through formate activation enzymes is further condensed with non-toxic substrate acetone to produce 2-hydroxyisobutyrate (2HIB) (FIG. 23C).
The screening of a larger group of formate activation enzymes in actively growing cells was conducted using the M9-LB medium contains 6.78 g/L Na2HPO4, 3 g/L KH2PO4, 1 g/L NH4Cl, 0.5 g/L NaCl, 2 mM MgSO4, 100 μM CaCl2), 15 μM thiamine-HCl, 10 g/L tryptone, and 5 g/L yeast extract additionally supplemented with the micronutrient solution of Neidhardt^68. […] The cells were pelleted by centrifugation and the supernatant analyzed by HPLC as described below. The expected product 2-hydroxyisobutyric acid was detected in the media indicating the performance of corresponding formate activation enzymes. […]

glyoxylate = test: Growth-coupled selection of alanine dehydrogenases in glycine auxotroph strain; format: cell-based, E. coli; settings: glycolate instead of glycine supplementation

CC(C)(O)C(=O)O [2HIB, 2-hydroxyisobutyric acid]
2HIB concentration at which AC440 is still able to grow and maintain metabolic activity (AC440): 75 g/L | 2HIB concentration at which impact on growth could be observed (AC440): 25 g/L

B1: StEutE: acyl-CoA reductase, Salmonella typhymurium, Uniprot P41793 (protein, UniProt P41793 1-467, looked up)
Acetaldehyde dehydrogenase …: MNQQDIEQVVKAVLLKMKDSSQPASTVHEMGVFASLDDAVAAAKRAQQGLKSVAMRQLAIHAIREAGEKHARELAELAVSETGMGRVDDKFAKNVAQARGTPGVECLSPQVLTGDNGLTLIENAPWGVVASVTPSTNPAATVINNAISLIAAGNSVVFAPHPAAKKVSQRAITLLNQAVVAAGGPENLLVTVANPDIETAQRLFKYPGIGLLVVTGGEAVVDAARKHTNKRLIAAGAGNPPVVVDETADLPRAAQSIVKGASFDNNIICADEKVLIVVDSVADELMRLMEGQHAVKLTAAQAEQLQPVLLKNIDERGKGTVSRDWVGRDAGKIAAAIGLNVPDQTRLLFVETPANHPFAVTEMMMPVLPVVRVANVEEAIALAVQLEGGCHHTAAMHSRNIDNMNQMANAIDTSIFVKNGPCIAGLGLGGEGWTTMTITTPTGEGVTSARTFVRLRRCVLVDAFRIV
performance in isobutene glycol production (2-hydroxyisobutyryl-CoA): best performance

B2: OfFrc: acyl-CoA transferase (ACT), Oxalobacter formigenes, Uniprot O06644 (protein, UniProt O06644 2-428, looked up)
Formyl-CoA:oxalate …: TKPLDGINVLDFTHVQAGPACTQMMGFLGANVIKIERRGSGDMTRGWLQDKPNVDSLYFTMFNCNKRSIELDMKTPEGKELLEQMIKKADVMVENFGPGALDRMGFTWEYIQELNPRVILASVKGYAEGHANEHLKVYENVAQCSGGAAATTGFWDGPPTVSGAALGDSNSGMHLMIGILAALEMRHKTGRGQKVAVAMQDAVLNLVRIKLRDQQRLERTGILAEYPQAQPNFAFDRDGNPLSFDNITSVPRGGNAGGGGQPGWMLKCKGWETDADSYVYFTIAANMWPQICDMIDKPEWKDDPAYNTFEGRVDKLMDIFSFIETKFADKDKFEVTEWAAQYGIPCGPVMSMKELAHDPSLQKVGTVVEVVDEIRGNHLTVGAPFKFSGFQPEITRAPLLGEHTDEVLKELGLDDAKIKELHAKQVV
performance on formate activation (2HIB) (formate): better performance

B3: BsAld: alanine dehydrogenase from Bacillus subtilis, Uniprot Q08352 (protein, UniProt Q08352 1-378, looked up)
Alanine dehydrogenase: MIIGVPKEIKNNENRVALTPGGVSQLISNGHRVLVETGAGLGSGFENEAYESAGAEIIADPKQVWDAEMVMKVKEPLPEEYVYFRKGLVLFTYLHLAAEPELAQALKDKGVTAIAYETVSEGRTLPLLTPMSEVAGRMAAQIGAQFLEKPKGGKGILLAGVPGVSRGKVTIIGGGVVGTNAAKMAVGLGADVTIIDLNADRLRQLDDIFGHQIKTLISNPVNIADAVAEADLLICAVLIPGAKAPTLVTEEMVKQMKPGSVIVDVAIDQGGIVETVDHITTHDQPTYEKHGVVHYAVANMPGAVPRTSTIALTNVTVPYALQIANKGAVKALADNTALRAGLNTANGHVTYEAVARDLGYEYVPAEKALQDESSVAGA
growth of glycine auxotroph strain with glycolate (glyoxylate): started to grow
